Data reported in the nanobody polyreactivity screen of Harvey et al. (2022).

Experiment: yeast display, Sf9 membrane polyspecificity reagent, FACS + sequencing; frameworks hold sequencing errors
Outline: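 Genes from sorted yeast were amplified by colony PCR, read by MiSeq 2 × 250 sequencing and filtered on CDR length. These cells carried a synthetic nanobody library in Saccharomyces cerevisiae BJ5465 and were sorted by FACS into low and high (top ~1%) gates on anti-HA and streptavidin fluorescence. Polyreactivity is labelled according to the gate of origin.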

Row | Sequence | polyreactivity (PSR sort gate)
1 | QVQLVESGGGLVQAGGSLRLSSAASGSISDSYAMGWYRQAPGKERELVAAITSGDSTYYADSVKGRFTISRDNAKNTVYLQMNSLKPEDTAVYFCAKRVSRVRGYVFTDWSEYDYWGQGTQVTVSS | low polyreactivity
2 | QVQLVESGGGLVQAGGSLRLSCAASGSTFAYNAMGWYRQAPGKERELVAAISSSGGSTSYADSVKARFTIARDNAKNTVNLQMNSLKPEDPAVYYCAADSYPAYLGFVGFDYWGQGTQVTVSS | low polyreactivity
3 | QVQLVESGGGLVQAGGSLRLSCAASGRIFYVYGLGWYRQEPGKERELVAAISKRGDNTYYADSVKGRFTISRDNSKNTVYLQMNSLKPEDTAVYYCKVKRYGGRSDYWGQGTQVTVSS | high polyreactivity
4 | QVQLVESGAGLVQAGGSLRLSCAASGFTFQNYAMGWYRQAPGKERELVAAIDSRGGRTYYADSVKGRFTISRDNAKNSVYLQMNSLKPEDTAVYYCAVAENKRFGSVGYYYWGQGTQVTVSS | low polyreactivity
5 | QVQLVESGGGLVQAGGSLRLSCAASGITFYVNAMGWYRQAPGKERELVAAITQSVDITSYADSVKGRFTISRDNAMNTFYLQINRLKPEYTAVYYCATRGIPDDNARDYWGQGTQVTVSS | low polyreactivity
6 | QVQLVESGGGLVQAGGSLSLSCAASGSIFYGNAMGWYRQEPGKERELVAAITYGTSSTYYADSVKGRFTISRDKAKNTVYLQMNSLKPEDTAVYYCAADAKSHPTTRNYVGSPMDYWGQGTQVTVSS | low polyreactivity
7 | QVQLHESGGGLVQAGGSMRLSCEASGTISYAGTMGWYRQAPGKEREFVAGIGLGSNTNYADSVKGRYTIIRDNEKKSVYLQMNSLKPEDTSLYYFAVGVYDPLGRPYWCQGTQVTVSS | low polyreactivity
8 | QVQLVESGGGLVQAGGSLRLSCAASGFTFYSNAMGWYRQAPGKERELVAAITSGGNTNYADSVKGRFTISRDNAKNTVYLQMNSLKPEDTAVYYCAAYPPSQRAEYDFWGQGTQVTVSS | low polyreactivity
9 | QVQLVESGGGLVQAGGSLRLSSAASGNTFRHYAMGRYRQAPGKERELVAAISYSGGSTYYADSVKGRFTISRDNAKNTVYLQMNSLKPEDTAVYYCAAYSYASYGVSGYYYWGQGTQVTVSS | high polyreactivity
10 | QVQLVESGGGLVQAGGSLRLSCAASGRILVVNAMGWYRQAPGKERELVAAISTTGGRTYYADSVKGRFTISRDNAKNTDYLQMISLKPEDTAVYYCAKDDGRFGRTHEHDYWGHGTQVTVSS | high polyreactivity
11 | QVQLVESGGGLVQAGGSLRLSCAASGLIFKYNDMGWYRQAPGTEREFVAAISWRGGRTYYADSVKGRFTISRDNEKNTVYLQMNSLKPEDTAVYYCNAGYRIAQFPSPHIAYYGYGYWGQGTQVTVSS | high polyreactivity
12 | QVQLVESGGGLVQAGVSLRLSCAASGRTFVSNAMGWYRQAPGKEREFVAAIRDSGGRTYYADSVKGRFTISRDNANNTVYLQMTSLIPEDTAVYYCATRGVSPSRPGYYWGQGTQVTVSS | high polyreactivity
13 | QVQLVESGGGLVQAGGSLRLSCAATGSTFWQYVMGWYRQAPGKERELVAAISYSGGSTYYADSVKGRFTISRDNAKNTVYLQMNSLKPEDTAVYYCATRGYRWSVFDYWGQGTQVTVSS | high polyreactivity
14 | QVQLVESGGGLVQAGGSLRLSCAASGRTFGVYVMGWYRQAPGKERELVAAIRIGDSTNYADSVKGRFTISRDNAKNTVYLQMNSLKPEDTAVYYCNAYRVRYTVDSVFYGYDYWGQGTQVTVSS | high polyreactivity
15 | QVQLVESGGGFVQAGGSLRLSCAASGSIFWTYAMGWYRPAPGNERELVATIPYSDGNTYYADSVKGRFTISRDHAKNTVYLQMNSLKPEDTAVYYGAADTVPDWQEYDYWGQGTQVTVSS | low polyreactivity
16 | QVQLVESGGGLVQAGGSLRLSCAASGSIFRRKAMGWYRQAPGKERELVAAIRRGGSTNYADSVKGRFTISRDNAKNTVYLQMNSLKPEDTAVYYCAARGGSSGFYYWGQGTQVTVSS | high polyreactivity
17 | LQLVESGGGLVQAGGSLRLTSAASGSTFHRYAMGWYRQSPGKERELVAAISSRGGSTYYADSVKGRFTISRDNAKYTVYLQMNSLKPEDTAVYYCAVYGGRSGVPFDSMDYWGQGTQVTVTS | high polyreactivity
18 | QVQLVESGGGLVQAGGSLRLSCAASGFIIYGYVMGWYRQAPGKERELVAAINSSSGRTYYADSVKGRFTISRDNAKNTVYLQMNSLKPEDTAVYYCAAYYYGSYDGTPYDYRGQGTQVTVSS | low polyreactivity
19 | QVQLVESGGGLVQAGGSLRLSCAASGSTFGSYAMGWYRHAPGKERELVAAINGGSSTNYADSVKGRFTISRDNAKNTVYLQMNSLKPEDTAVYYCNATETHRLYDSWGQGTQVTVSS | low polyreactivity
20 | QVQLQESGGGLVQAGGSLRLSCAASGIIFDNPNMGWYRQAPGKERELVATINSGATTNYADSVKGRFTISRDNAKNTVYLQMNSLIPEDTAVYYCAVDLSPTYFYYWGQGTQVTVSS | high polyreactivity
21 | QVQLVESGGGLVQAGGSLRLSCAASGRTFFDYTMGWYRQAPGKERELVAAITGGDGSTYYADSVKGRFTISRDNAKNTVYLQMNSLKPEDTAVYYCAAGYTAGSYSLDADYYWGQGTQVTVSS | low polyreactivity
22 | QVQLVDSGGGLVQAGGSLRLSCAASGISFGVYAMGWYRQAPGKERELVAAISRRGASTYYADSVKGRFTISRDNAKTTVYLQMNILNPEDTAVYYCPAYLARRQYDYWGQGTKVTVSS | high polyreactivity

Row | Sequence | polyreactivity (PSR sort gate)
23 | QVQLVESGGGLVQAGGSLRLSCAASGSTFGRNAMGWYRQAPGKERELVAAINWSDGSTHYADSVKGRFTISRDNAKNTVYLQMNSLKPEDTAVYYCGADAWSWPVDYNYWGQGTQVTVSS | low polyreactivity
24 | QVQLVESGGGLVQAGGSLRLSCAASGFIFRYNAMGWYRQAPGKERELVAAISSGGSTNYADSVKGRFTISRDNAKNTVYLQMNSLKPEDTAVYYCAADVEQYYPLLTFDFWGQGTQVTVSS | low polyreactivity
25 | QVQLVESGGGLVQAGGSLRLSCAASGSTFVPYVMGWYRQAPGKERELVAAISKSGTSTYYADSVKGRFTISRDNAKNTDYLQMNSLKPEDTAVYYCAAVARRQVPYDYWGQGTQVTVSS | high polyreactivity
26 | QVQLVESGGGLVQAGGSLRLSCADSGSTFDSYDMGWYRQAPGKERELVAGISYSSDRTYYADSVKGRFTISRDNAKNTVYLQMNSLKPEDTAVYYCAKDHTGTVQYPLDYWGQGTQVTVSS | low polyreactivity
27 | QVQLVESGGGLVQAGGSLRLSCAASGSIFTYYAMGWYRQAPGKERELVAAITWGGSTYADSVKGRFTISRDNAKNTVYLQMNSLKPEDTAVYYCAAQFRSYRYPAYHYDYWGQGTQVTVSS | low polyreactivity
28 | QVQLVESGGGLVQAGGSLRLSCAASGSIFDPYAMGWYRQAPGKERELVAAISFSGGSTSYADSVKGRFTISRDNAKNTVYLQMNSLTPEATAVYYCAKRARFYSETDLKPYGFDYWGHGTQVTVSS | low polyreactivity
29 | QVQLVESGGGLVQAGGILRLSCAAAGFIFYRYAMGWYREAPGKEREFVAAISRSGGSTYYADSVKGRFTISRDNAKNTVYLQMNSLKPEDTAVYYCAAGRVTISYFQDRLTTYDYWGQGTQVTVSS | high polyreactivity
30 | QVQLVESGGGLVQAGGSLRLSCAASGRTFGYNGMGWYRQAPGKERELVAAINSGGNTNYADSVKGRFTISRDNAKNTVYLQMNSLKPEDTSVYYCAKYGTLFEPVPNEYDYWGQGTQVTVSS | low polyreactivity
31 | QVQLVESGGGLVQAGGSLRLSCAASGFILGGYAMGWYRQAPGKERELVAAISWSSGSTYYADSVKGRFTISRDNAKNTVYLQMNSLKPEDTAVYYCAAVGAYDYWGQGTQVSVSS | low polyreactivity
32 | QVQLEESGGGLVQAGGSLRLSCAASGNIFRDYAMGWYRQAPGKERELVAAISWSGGSTYYADSVKGRFTISRDNAKNTVYLQMNSLKPEDTAVYYCAARKPYSYNYWGQGTQVTVSS | high polyreactivity
33 | QVQLVESGGGLVQAGGSLRLSCAASGRIFWSYAMGWYRQAPGKERELVAAISYSGGGTYYADSVKGRFTISRDNAKNTVYLQMNSLKPEDTAVYYCAAETYYAPYDYWGQGTQVTVSS | high polyreactivity
34 | QVQLVESGGGLVQAGGSLRLSCAASGRISPKNAMGWYRQAPGKERELVATIRKIGGRTYYADSVKGRFTISRDNAKNTVYLQMNSLKPEDTAVYYCATDFAPSYYPDRFDYWGQGTQVTVSW | low polyreactivity
35 | QVQLVESGGGLVQAGGSLRLSCAASGSIISINAMGWYRQAPGKERELVAAITWSGGSTYYADSVKGRVTISRDNAKNTVYLQMNSLKPEDTAVYYCAAAFWFQRGTGYYTSKFDYWGQGTQVTVSS | low polyreactivity
36 | QVQLVESVGGLVQAGGSLRLSCAASGRTFYHYAIGWYIQAPGQERELVAAITYRGGNTYYADSVKGRFTISRDNAKNTVYLQMNRLKPEDTAVYYCAKQGVRRHYGYDYWGQGTQVTVSS | high polyreactivity
37 | QVQLVESGGGLVQAGGSLRLSCAASGGIFRKYAMGWDRQAPGKERDLVAAITSGGGTYYADSVKGRFTISRDNAKNTVLLQMNSQKPEDTAVYYCAARTLYVARRRPYYYWGQGTLVTVSS | high polyreactivity
38 | HVQLVESGGGLVQAGGSLRISCAASGRIFGRNAMGWYRQAPGTERELVATISGGGSTYYADSVKGRFTISRDNAKNTVYFQMNSLKPEDTAVFYCAVGHRWWGAYAGYDYWGQGTQVTVSS | low polyreactivity
39 | QVQLVESGGGLVQAGGSLRLSCAASGSIFISYAMGWYRQAPGKESELVDAINYSGGSTYYADSVKGRFTISRDNAKNTVYLQMNSLKPEDTAVYYCAKRSTYRYYGYKLRDYWGQGTQVTVSS | low polyreactivity
40 | QVQLEESGGGLVQAGGSLRLSCAASGRTFGWNGMGWYRQAPGKERELVAVISSGGSTKYADSVKGRFTISRDNAKNTVYLQMNSLKPEDTALYYCAKDWVRSGRRNMDYWGQGTQVTFSS | low polyreactivity
41 | QVQLVESGVGIVQAGGSLRLSCAASGSTYGYNAMGWYRQAPGKESEFVARIRSSGSTTYADSVKRRFTISRDNAMNTVYLLMNSLNPEDNAVYYWAARRYFYLVVYYSWGQCTQVTVSS | high polyreactivity
42 | QVQLVESGGGLVQAGGSLRLSCAASGRTIEWYAMGWYRQAPGKEREFVARISGIGGSTYYADSVKGRFTISRDKAENTVYLQMNSLKPEDTAVYYCAAVSYFGYYYWGQGTQVTVSS | high polyreactivity
43 | QVQLVESGGGLVQAGGSLRLSCAASGIIFPAYAMGWYRQARGKERELVAAITSRGGSTYYADSVKGRFTISRDNAKNTVYLQMNSLKPEDTAVYYCNAAALADYDYWGQGTQVTVSS | low polyreactivity
